Experimental data reported in a protein production outcome set (Wang et al. 2014).

Assay: label from the status in PepcDB records
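Also: failed if final PepcDB status was selected cloned or expressed and not failed if soluble or beyond.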

**Q.** Which protein production does the source give for “MNKPYFIAFLLSLALWTVIPSVFAGDVVLKVFEGKPRINSPHITGNYPSTPFIFYIPTSGQRPMQWSAEKLPEGLELDSKTGIISGVMTSKGDYTVTLKAENALGVSVKQLVIRIGDELLLTPPMGWNSWNTFGQHLTEELVLQTADAMITNGMRDLGYSYINIDDFWQLPERGADGHLQIDKTKFPRGIKYVADYLHERGFKLGIYSDAAEKTCGGVCGSYGYEETDAKDFASWGVDLLKYDYCNAPVDRVEAMERYAKMGRALRATNRSIVYSVCEWGQREPWKWAKQVGGHLWRVSGDIGDIWYRDGNRVGGLHGILNILEINAPLSEYAGPSGWNDPDMLVVGIDGKSMSIGYESEGCTQEQYKSHFSLWCMMASPLLSGNDVRNMNDSTLKILLDPDLIAINQDVLGRQAERSIRSDHYDIWVKPLADGCKAVACFNRASSPQTVILNENTIADLSFEQIYCLDSHLTKSGSDSKELIVKLAPYQCKVYILGKTDLEHHHHHH” here?
**A.** The protein production was “failed”.

**Q.** With “MNKRNWTAYYNSTKQNTLPRKSLLKAIANFDKEKINLSKSAIDLGCGAGIDVMELLRCGWSVIAIDSQLSAIDSLLSSAQELTCANKLKTIISSFEALDSLPKVNLINASFSLPFLKPVYFYKFWSVILKGLKPGGRFSGSFFGFNDFWNTRTDMTFLNREMICHLFSQFKIEYFQEEEKDEMDALGYYKHWHKFFIVAKKIALEHHHHHH” as the sequence, how does the protein production read?
**A.** Its protein production is “failed”.

**Q.** For “MNKRPARPTRSRRRISVAPATRQLRNARQMMADDIAVARAVERGELETEEHPTHGATNAEKAAESGLQPQPSDHEKAEVATSKHGLPKLTIVLLTVAAAWLGLSFLHELSSVVAPLFFGLNLLITAYPIHTWLVKHKCPRWISATTAGTAVIVVLAAGVVGMVWSVAAMINQLQSYIPQMEKIYTQLLHWSTQLGYSQDVIADKLKKIDPQQVMSVVTSVASDTTSVVTMIIVILTGMIFMVMDTPQMHDRLRMAGSRKPDVVLALESFASGIRKYWLVTTVFGLIVALFDWAALLIIGVPLAGVWALFSFLTNYIPNIGFIIGVIPPALLALFKDGWVAAVAVVVSYSVLNFVIQSIIQPKFAGDAVGLTPTMSFVSLLLWGWVFGALGTLIALPCSLLVKATLIDHDPGARWVNALISSRPTEGLEDNPDE”, which protein production is on record?
**A.** The protein production was “failed”.

**Q.** With “MNKRPASGTGHSVLRRSTRRQLLGAAAGATAALCGCLDDNGTDRTEPLDVSIGDVATYRYGPQRRGVADTTVPETAPDERWRLNTDWPVRAAPAVVGGVVYHCGNGLAAVDAVDGERLWRVDTDGPSETPPAVADGVVFAGTHRGRLHAINSDGTEHWTASGNGRIDAAPVVVDGRVYTASRATDGEVYAFEAGGREWTHEAVYRVNSPPAVADGLVFVGGWEGAVYGIDADSGERQWRTATDGPVLSSPAVADGRVFAGGNDGVVRALDVADGDERWQVETAATPTAPAVADGSLYVGDADGRLRRLDAATGEEGWQVTVASGIGVPPTVVEGTVVVGTTDGGVVAVDAADGTERWRVDTGERIRSQPVLAAGRVFVGSGRRLLALGK” as the sequence, how does the protein production read?
**A.** Its protein production is “failed”.

**Q.** With “MNKTFVGFIFLLFLVGGVVSCQRSSSPYPYSLRYADSLMEISPERTLAYLRKLDVSTYSAGDRAYFSLLFTQATDKNMLSLLPCDSLIDTALDYYIKKDGVNWAKAWLYKGRIQKKMNMTEQALKSCFTALQGVEGNTGEELKLKGMLYEDMGSIYLHQSLYQKAFDAFYRSYQCDSLLNDHRLVMYPLSNMGWVRVIQGKTVEAFYYLNQSIQLALRLNDSAFVSDIYERMSLNCENVDSAFLYAHLSHQYLTKDGDSISLWLTFGDLYLDKQELDSAEYYLKRILDTADFKRKILASYSLAEVEKIRGNYQRAFEYQSYYGDNIDSIFLLNKASDIERLAYKYDSEAKVVKEKEKQRFLIQQLCYGGVLFLLVIVVIFQRVYRRRQIARLLYEQRITYLNEKTALSQLQIERLEVQISALKQSGMEREQEIDLKQAELCCVIDEKARLRNCLFMETSIFKHIRELSTQPRLGQNGTKGSPKVLLMKEQEQLKNILFGIYDDYIRYLKGTYPKITDNDCIYCCLKLCEFDDQTIAYCFGNVSKQIVAQRRLRLKKKMAEAN” as the sequence, how does the protein production read?
**A.** Its protein production is “failed”.

**Q.** For “MNKTLIAAAVAGIVLLASNAQAQTVPEGYQLQQVLMMSRHNLRAPLANNGSVLEQSTPNKWPEWDVPGGQLTTKGGVLEVYMGHYMREWLAEQGMVKSGECPPPYTVYAYANSLQRTVATAQFFITGAFPGCDIPVHHQEKMGTMDPTFNPVITDDSAAFSEQAVAAMEKELSKLQLTDSYQLLEKIVNYKDSPACKEKQQCSLVDGKNTFSAKYQQEPGVSGPLKVGNSLVDAFTLQYYEGFPMDQVAWGEIKSDQQWKVLSKLKNGYQDSLFTSPEVARNVAKPLVSYIDKALVTDRTSAPKITVLVGHDSNIASLLTALDFKPYQLHDQNERTPIGGKIVFQRWHDSKANRDLMKIEYVYQSAEQLRNADALTLQAPAQRVTLELSGCPIDADGFCPMDKFDSVLNEAVK”, which protein production is on record?
**A.** The protein production was “not failed”.

**Q.** Which protein production does the source give for “MNKYFPLAKYKKEKMMFMKLLEGCYKVERLYIYSKRLCKQMEPKSQEEYNIARKQIKKTFDEGWTEADCGGRESCILEIPFVFWSSPNKSNCRRQPKRSYGKKLLYIPLNDLKDDIPYPNSSSEAGKVWKPQ” here?
**A.** The protein production was “failed”.

**Q.** Which protein production does the source give for “MNLANIVQRGWEALGAGDFDTLVTDYVEKMIFIMPGQADVLKGRQAFRSALDNLGEILPPGFEITGLRQLEGENEIVSIVEWKSDKMIASQLSVLFKFEGDQIYEERWFVDTEQWKSVF” here?
**A.** The protein production was “not failed”.

**Q.** For “MNLDRRGLILLVILTLAWGINWPIMKLGVAHFPAMAFRLLCMAGGLVALGLALTFRGDSLRVPRAAWGTVLKLAIPNMVIWHLFAICAVKMLSSGRAAILGYTMPIWAVVWGLVIFRDRIALSAWIGIGCALAGTVLLLSGEIAALTGSPAGTLLMLVAAAGWGFGTQLMKRTHTDVPIGAMTFWMLAITLPFLGAGTLLFESGWRMPTAIEWGAIAYNAVVVFAYCHLVWFALARSLPPVVSSLSIMFIPVVGVFSGMWFLGETPHWQDYVAIVLMFAALSSVMLAPLLRRRM”, which protein production is on record?
**A.** Its protein production is “failed”.

**Q.** For “MNLETIPSGELTVSNQRSISRLVAQAGQMLLAHGAESTLVCDIMRRIGLACGVHEVAVALSANALVVTTVMDGHCITTTRSCADRGINMRVITQIQRICIMMERGLLDAAMAQKKLNTISPERYNRWLVVLMIGLSCAAFSHLAGGDWGVFIMTFLASAGGMIVRQEIGHRHFNPLLNFAATAFVTTLISAQAEIYQIGNLPTVAMASSVLMLVPGFPLINSVADMLKGHINMGIARFVMASLLTLATCLGIVAAMSVTGIWGWAI”, which protein production is on record?
**A.** The protein production was “failed”.

**Q.** For “MNLFGQKDRGNHVSGVDRGKVIMYGLSTCVWCKKTKKLLTDLGVDFDYVYVDRLEGKEEEEAVEEVRRFNPSVSFPTTIINDEKAIVGFKEKEIRESLGF”, which protein production is on record?
**A.** The protein production was “not failed”.

**Q.** For “MNLFKKIIFGAAVMGLMAAGDASAAGKIVIDGSTTVGPIAKAFAAYFHKKTGIDVTVSESGSGNGAKSLINKTCDIADMSRPMEPKEIAAAKANGVNPVEHVVALDGLSMIVHPSNPVAKLTTAQIHDIYLGKITNWKQVGGPNAQIVFVQRESNSGTQECFEKLVMKDDKIAPAAETAASNGAVKSRVASTPNAIGFVGLGFVDKSVKPLIVNGVKPSIATVRNGSYVLHRPLFMYTNGQPKGDVAKFINLPKTPDGKRMISELGFVNK”, which protein production is on record?
**A.** The protein production was “failed”.

**Q.** With “MNLGAAEEESAQEIHLPADINWEMLDKSKFFVLGAALFSGVSGALYPAVLMKTRQQVCHSQGSCIKTAFTLVRHEGLRGLYRGFGTSLMGTIPARALYMTALEVTKSNVGSAAVSLGLTEAKAAAVANAVGGLSAAMAAQLVWTPVDVVSQRLMVQGSAGLVNASRCNYVNGFDAFRKIVRADGPKGLYRGFGISILTYAPSNAVWWASYSVAQRMVWGGIGCYVCKKDEESGNNSTTMKPDSKTIMAVQGVSAAIAGSVSALITMPLDTIKTRLQVLDGEDSSNNGKRGPSIGQTVRNLVREGGWTACYRGLGPRCASMSMSATTMITTYEFLKRLSAKNHDGFYSKS” as the sequence, how does the protein production read?
**A.** The protein production was “failed”.

**Q.** With “MNLIKTCGLCLLLSVALSGCVTAPTPPESDPQAEQAVLEVSFSEAVKAMKQGNFTEARTVFEQLARNYPDKAGPMANLGIIAFREGDADGAKEWFERARAVNPEHVQALNHLGVIARNAGEFDEAERYYRAALAADPDYAPAILNLAFLLDIYLGNPADAIELYERYQSAASEPHPRLEDWIFDAKNRI” as the sequence, how does the protein production read?
**A.** Its protein production is “failed”.

**Q.** Which protein production does the source give for “MNLLNLFTYVIPIAICIILPIFIIVTHFQIKSLNKAVTSFNKGDRSNALEILSKLVKSPIKNVKANAYITRERIYFYSRDFELSLRDLLQAIKLRPKTINDVYSFALSYHILGEPERALKYFLRAVELQPNVGISYENLAWFYYLTGKYDKAIENFEKAISMGSTNSVYRSLGITYAKIGDYKKSEEYLKKALDAEPEKPSTHIYFSYLKRKTNDIKLAKEYALKAIELNKNNFDGYKNLAEVNLAEDDYDGFYKNLEIFLEKINFVTNGEDFNDEVYDKVKDNEKFKELIAKTKVIKFKDLGIEIDDKKILNGKFLV” here?
**A.** The protein production was “failed”.

**Q.** Which protein production does the source give for “MNLNEYKLLTFFNMKYKRKSKEEFLIKYQHDNTFRIMSLCLIILFLGVMSASVAHAESYKFVTKWGSYGNGAGQFHYPRAIVATSSGYIYVADSGNNRVQEFNSNGKFINQWSSTNDVSLGSVNGVAIDSSGDVYVADTNNRIVKFDKNGNFITKFGSYGSGNVQFKNARDICLDSSGNIYVADTGNNRIQKLDNNGNYLVQWGSYGSSNGQFKNPIDVALDSLDNVYVADKDNHCIKKFDSNGNYLMQFGNSGNGDGQFNNIISVFVDSSGNIYVSDRGNTRIQKFDSDGNYLTHWGSYGTNDGQFKNPEDIGVDSSGNVYVADADNNRIQKFAPVYPPVTNFVSNVTTGYAPLAVKFTDTSTGTPFSWTWNFGDGTFSTVKNPTHTYSKAGKYTVKLTATNEGGNSTAAKTNYITVKTTTVKPVAIFSASPTSGKAPLKVTFTDKSTGSPTKWKWNFGDGSKSFLQNPSHKYSKAGKYTVSLTVKNDKGSNTVTKTNYLTVVAKPVAAFSASPTSGKAPLKVTFTDKSTGSPTKWKWNFGDGTTSAKQNPIHKYSKAGKYKVTLTVANAAGINTVTKTNYITVIAKPAAAFSASPTSGKAPLKVTFSDKSTGTPTKWKWTFGDGSKSFLQNPTHKYSKAGKYKVILTVTNTAGSNTVTKTNYITVVAKPVAAFSASPTSGKAPLKVTFSDKSTGTPTKWKWNFGDGATSIKQNPVHKYSNVGSYTVKLTVTNAAGSNTKTISNYIILKSK” here?
**A.** Its protein production is “failed”.

**Q.** Which protein production does the source give for “MNLNQLDIIVSNVPQVCADLEHILDKKADYANDGFAQFTIGSHCLMLSQNHLVPLENFQSGIIIHIEVEDVDQNYKRLNELGIKVLHGPTVTDWGTESLLVQGPAGLVLDFYRMK” here?
**A.** Its protein production is “not failed”.

**Q.** For “MNLQHITILTLFIEGLLSFFSPCVLPILPVYIGILAGQGEEKQSGEIIWDRRKVFTNTFLFISGIAATFFILAFASSLISQFLQSHIQFLQNLGGILILIMGLVQVGLIKSHFFNREYSAKNKVYQAGQKVTPLIAFLMGFTFSFSWTPCIGPILASVFLYASTHQGIYSVLLILIYCLGFVIPFALIALFSQRVMSVFKKQKRFLKYTKLFSGILLILIGISILTGSFAKIAHLFN”, which protein production is on record?
**A.** The protein production was “failed”.

**Q.** For “MNLRAIKAILIKDLKEIRREKMVVFWIFVFPLMWVTLMGALWGGPGSPVTVDVGVVNPGGNISTLITEIMENSTINGTQLFNVKLFPNASLGIEALKHGSIKALVLFPEDFDINITSGLQGRVLVYFDKTDPQNYQIVSSIIRSFFSEVGREFRARKIEMMMQYIPTEYKEYLLATAEPIVLEEKIIHGESGRGIKFYVTSFIGIQFFFATMLMIGGSVLEEITKGTLRRIAASPTTPWDFLIGKSLSTLTTIIVSIIIGIGYARVVFGATLFPSLFGWAIIFTAAVFSMSLGLAIVMLTRSERSTPAVVNLVSMPLLFLAGIVIPESIMPEWARPIAHYFPLGRALKVLRLSDIYGRPPGELVGDFIYVLIWSVLMAMVAVASYAWAIRRID”, which protein production is on record?
**A.** The protein production was “failed”.

**Q.** For “MNLTKVKGNTFFIKGGTNTGIYVFEDNTALMIDPGLCGSRPRRVNKVLDENNIQVRYIINTHGHDDHYGACNQFKEYYKDVCIMSSEYDKLYIENPELFSKYIVGGKSNVFMDNILKNKMLDDIKIDKSIEAGKFELNNEMFDIIEFQGHTPGSIAVLTKDNVIFVGDLLIGDEILSKYDFLFLYDIQEQINSLEKLKNIDFEYLVLGHGKQVISKEDSYKLIEKHLNALKKYLYQIRELLVEPKSLEILLKNIINNNNLSNNYKEYHFFKSSLVSVISYLVDLEEIGYILENGELLYYTKTK”, which protein production is on record?
**A.** The protein production was “failed”.
